B1: human TFIIH p62 PH domain (PH-D) (residues 1–108) (domain or fragment)
chain: MATSSEEVLLIVKKVRQKKQDGALYLMAERIAWAPEGKDRFTISHMYADIKCQKISPEGKAKIQLQLVLHAGDTTNFHFSNESTAVKERDAVKDLLQQLLPKFKRKAN

Assay [1] concerns the target B1. Briefly: ITC. (In ITC the heat of successive injections is recorded.)
Assay [2] has as its target human RPB6 (residues 1–127), full-length (human, UniProt P61218 1-127). Nature of the assay: NMR.

The record followed here is paper PMC8754651 (2021).

By Kd is commonly meant the equilibrium constant for the complex coming apart. High values mean a looser complex, low ones a tighter complex.

The molecule MSDNEDNFDGDDADDVEEDEGLDD [human RPB6 (residues 1–24) F13A] gave a Kd in assay [1] of 18.1 µM.

As to B1, in assay [2], the affinity, expressed as Kd, was 4.13 µM.
